Test [1] has as its target T1, Human IL-33-his (human, UniProt O95760 112-270, biotinylated with EZ-Link NHS-Biotin where used as IL-33-his-biotin).
T1 sequence: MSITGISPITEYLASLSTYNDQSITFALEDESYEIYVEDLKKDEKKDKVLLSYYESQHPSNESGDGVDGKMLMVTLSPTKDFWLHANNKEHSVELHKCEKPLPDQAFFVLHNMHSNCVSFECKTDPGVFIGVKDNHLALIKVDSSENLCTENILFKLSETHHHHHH
The experiment in a line: cell-based or functional assay.

In test [2] the target is T1, Human IL-33-his. Nature of the test: ELISA as Example 9, IL-33-his-biotin on streptavidin plate. In general terms: An ELISA detects its analyte on a solid surface through an enzyme-linked reagent.
Test [3] addresses T1, Human IL-33-his. The experiment in a line: competition ELISA as Example 10, ST2-Fc on plate; competitor ST2-Fc. On the procedure: (§1) ST2-Fc protein was diluted to 1 μg/mL with ELISA coating solution to coat ELISA plate with 100 μL/well. The plate was placed in a wet box at 4° C. for 16 h for coating. The ELISA plate was washed 3 times with PBST, and then was blocked with 2% BSA prepared in PBS at 200 μL/well at room temperature for 2 h. The plate was washed once with PBST, and was patted dry to remove the excess blocking solution. Each monoclonal antibody was diluted with 1% BSA prepared in PBST in a 3-fold gradient. The highest concentration of antibody was 10 μg/mL, and the antibody was diluted for 11 gradients. The diluted antibody was mixed 1:1 with 10 ng/ml IL-33-his-biotin, and then the mixture was added into the ELISA well at 100 μL/well. The plate was incubated at room temperature for 1 h. Each concentration was added to duplicate wells in parallel (maximum final concentration of antibody was […], final concentration of IL-33-his-biotin was 5 ng/mL). Unbound or non-specifically bound primary antibodies were washed out. According to the instructions of the antibody, HRP labeled streptavidin secondary antibody was diluted to an appropriate concentration with antibody diluent solution, then it was added to ELISA plate with 100 μL/well, and was incubated at room temperature for 1 h. The ELISA plate was washed with PBST for 5 times, and was patted dry on absorbent paper to remove excess liquid. TMB developing solution was added with 100 μL/well for development to an appropriate degree. 2M H₂SO₄ was added with 70 μL/well to terminate development, and the absorbance was measured at 450 nm on a multifunctional microplate reader. The data were analyzed.
The blocking effect of the above humanized antibodies on the binding of IL-33 to its receptor ST2 was determined by the ELISA method, and the relevant experimental methods were referred to Example 10.

For test [4], the target named is T1, Human IL-33-his. The experiment in a line: SPR Biacore 8K, antibody captured on Protein A/G chip, IL-33-his as analyte, 1:1 model. On the procedure: A chip with covalently coupled Protein A/G (purchased from GE Healthcare, catalog number BR-1005-30) was used to capture each antibody to be tested, and the relevant operating parameters were as follows: The antibody concentration was […], the contact time was 75 s, the flow rate was […], and the regeneration contact time was 30 s. The IL-33-his antigen was diluted with HBS-EP pH7.4 buffer solution (purchased from GE Healthcare, catalog number BR-1006-69). The maximum concentration was 50 nM, and diluted to 0.39 nM by two-fold dilution. Duplicate wells and 0 concentration point well were set, and 6M guanidine hydrochloride solution was used as the regeneration buffer. The sample was injected on Biacore 8K according to the following parameters, the binding time was 180 s, the dissociation time was 900 s, the flow rate was 30 μL/min, and the regeneration contact time was 30 s. After running, Biacore 8K Evaluation Software was used to analyze the data according to the “1:1 binding kinetics model”, and the binding kinetics parameters of each antibody to IL-33 were obtained.
(In general: SPR reads the build-up and loss of mass on a sensor chip optically.)

For test [5], the target named is T1, Human IL-33-his. Nature of the test: ELISA, IL-33-his-biotin on streptavidin plate, anti-human Fc detection. As to the method: SA protein was diluted to 2 μg/mL to coat ELISA plate at 100 μL/well overnight at 4° C. The plate was washed with PBST (PBS containing 0.05% Tween20) for 3 times, and blocked with 2% BSA prepared in PBS at 200 μL/well, at room temperature for 2 h. After the plate was washed twice with PBST, IL-33-his-biotin protein was diluted to 1 μg/mL with 1% BSA prepared in PBST, and was added to ELISA plate at 100 μL/well. The plate was incubated at room temperature for 1 h, and each monoclonal antibody was diluted with 1% BSA prepared in PBST in a 3-fold gradient. The highest concentration of antibody was 10 μg/mL, and the antibody was diluted for 12 gradients. Each diluted monoclonal antibody was added to ELISA wells with 100 μL/well, and the plate was incubated at room temperature for 1 h. Each sample was added to duplicate wells in parallel. The plate was washed with PBST for 3 times, and HRP-anti human IgG Fc secondary antibody prepared with PBST was diluted at an appropriate ratio, and was added to ELISA wells at 100 μL/well. The plate was incubated at room temperature for 1 h. After washing with PBST for 3 times, TMB developing solution was added at 100 μL/well. When the development met expectations, 2M H₂SO₄ was added to terminate the chromogenic reaction at 70 μL/well. Each reaction solution was shaken uniformly and OD450 nm was read on a microplate reader. The data was analyzed and EC₅₀ was calculated.

Test [6] has as its target T1, Human IL-33-his. The experiment in a line: competition ELISA, antibody mixed with IL-33-his-biotin, ST2-Fc on plate; competitor ST2-Fc. On the procedure:
as §1

This is an account of results in US20230399394A1 (SUNSHINE GUOJIAN PHARMACEUTICAL SHANGHAI, published 2023).

Usually EC50 stands for the concentration needed to bring the measured effect to its halfway point. In general, IC50 refers to the concentration needed to halve the response being measured. Low readings indicate inhibition by little substance, high ones a need for much substance. As usually defined, the Kd is the free concentration of one partner at which half of the binding sites on the other are occupied at equilibrium, for simple one-to-one binding. As a reminder, the koff is the first-order rate constant of dissociation. A low value points to a long-lived complex. What is called kon is the rate constant with which the complex forms. High values mean faster complex formation, low ones slower complex formation.

Changes are numbered by the printed parent chain. Names and notes keep the numbering of the source.

B1: 871G1-Hu1 (antibody, human IgG4 S228P, kappa, V domains shown)
VH: QVQLQESGPGLVKPSETLSLTCTVSGFSLSKYGVHWIRQPPGKGLEWIGVLRAGGTISYNSALMSRVTISEDISKSQVSLKLSSVTAADTAVYYCARDHYYYSSFGGFASWGQGTLVTVSS
VL: DIQMTQSPSSVSASVGDRVTITCLASQTIGAWLAWYQQKPGKSPKLLIYAATRLADGVPSRFSGSGSGTDFTLTISSLQPEDFATYYCQQLNSTPYTFGQGTKVEIKR
notes: Humanized; also called humanized antibody 871G1-Hu1
B1: in test [1], the “IC50 of inhibition of IFNγ secretion by NK cells induced by IL-33” value (“IC50 of inhibition of IFNγ secretion” for short) worked out at 851 pM, the “IC50 of the inhibitory effect on IL-6 expression in HUVEC cells induced by IL-33” value was 210 pM and the “IC50 of the inhibitory effect on the IFN-γ secretion of PBMC induced by IL-33” value was determined as 1400 pM. The EC50 in test [2] came to 191 pM. In addition, in test [3], the IC50 amounted to 404 pM. In test [4], the dissociation constant (Kd) was found to be 1710 pM, the koff came to 0.000504 s⁻¹ and the association rate constant (kon) was found to be 295000 M⁻¹ s⁻¹.

B2: 874F7-Hu2 (antibody, human IgG4 S228P, kappa, V domains shown)
VH: QVQLQESGPGLVKPSETLSLTCTVSGFSLSKYGVHWIRQPPGKGLEWLGVLRAGGSTGYNSALMSRLTISKDSSKSQVSLKLSSVTAADTAVYYCVRDHYYYSSYGGFVYWGQGTLVTVSS
VL: B1 VL with N92D, T94S
notes: Humanized; also called humanized antibody 874F7-Hu2
On to B2, for which, in test [1], the “IC50 of inhibition of IFNγ secretion” value stood at 1560 pM, the “IC50 of the inhibitory effect on IL-6 expression in HUVEC cells induced by IL-33” value was found to be 50 pM and the “IC50 of the inhibitory effect on the IFN-γ secretion of PBMC induced by IL-33” value turned out to be 1740 pM. Besides, the half-maximal effective concentration (EC50) in test [2] is 136 pM. Also, in test [3], the IC50 amounted to 350 pM. Moreover, in test [4], binding was put at a Kd of 2970 pM, the koff was determined as 0.000576 s⁻¹ and the kon was determined as 194000 M⁻¹ s⁻¹.

B3: 864F3-Hu1 (antibody, human IgG4 S228P, kappa, V domains shown)
VH: QVQLQESGPGLVKPSETLSLTCTVSGFSLTNYGVHWIRLPPGKGLEWIGVIRAGGSSDYNSALMSRVTISKDNSKSQVSLKLSSVTAADTAVYYCARDHYFSNSYGGSPYWGQGTLVTVSS
VL: B1 VL with V11L, G30A, A31T, N92Y, S93N
notes: Humanized; also called humanized antibody 864F3-Hu1
For B3, the EC50 in test [2] was found to be 249 pM.

B4: 874F7-HuG (antibody, human IgG4 S228P, kappa, V domains shown)
VH: B2 VH with L48I, L67V, K71V, S73T, S76N, V78F, V96A
VL: B1 VL with N92D, T94S
notes: Humanized; also called 874F7-Hµg; humanized antibody 874F7-HuG
As for B4, in test [2], the response was half-maximal at 170 pM (EC50).

B5: 871G1-HuG (antibody, human IgG4 S228P, kappa, V domains shown)
VH: B1 VH with E71V, I73T, S76N, V78F
VL: B1 VL
notes: Humanized; also called humanized antibody 871G1-HuG
B5 displayed an EC50 in test [2] of 187 pM.

B6: 871G1-Hu2 (antibody, human IgG4 S228P, kappa, V domains shown)
VH: B1 VH with I48L, V67L
VL: B1 VL
notes: Humanized; also called humanized antibody 871G1-Hu2
Consider B6, for which, in test [1], the “IC50 of inhibition of IFNγ secretion” value is 900 pM, the “IC50 of the inhibitory effect on IL-6 expression in HUVEC cells induced by IL-33” value came out at 175 pM and the “IC50 of the inhibitory effect on the IFN-γ secretion of PBMC induced by IL-33” value was determined as 1060 pM. The response in test [2] was half-maximal at 176 pM (EC50). In test [3], this molecule had an IC50 of 361 pM. In test [4], this molecule had an equilibrium dissociation constant (Kd) of 1760 pM, a koff of 0.000527 s⁻¹ and an on-rate (kon) of 300000 M⁻¹ s⁻¹.

B7: 864F3-HuG (antibody, human IgG4 S228P, kappa, V domains shown)
VH: B3 VH with L39Q, K71V, N73T, S76N, V78F
VL: B1 VL with V11L, G30A, A31T, N92Y, S93N
notes: Humanized; also called humanized antibody 864F3-HuG
B7 registered a 50% effective concentration (EC50) in test [2] of 760 pM. In other words, the sub-nanomolar range.

B8: 864F3-Hu2 (antibody, human IgG4 S228P, kappa, V domains shown)
VH: B3 VH with I37V, I48L, V67L
VL: B1 VL with V11L, G30A, A31T, N92Y, S93N
notes: Humanized; also called humanized antibody 864F3-Hu2
B8 yielded a 50% effective concentration (EC50) in test [2] of 181 pM.

B9: 864F3-Hu5 (antibody, human IgG4 S228P, kappa, V domains shown)
VH: B1 VH with I48L, V67L
VL: B1 VL with V11L, G30A, A31T, N92Y, S93N
notes: Humanized; also called humanized antibody 864F3-Hu5
As for B9, in test [1], the “IC50 of inhibition of IFNγ secretion” value came to 1020 pM, the “IC50 of the inhibitory effect on IL-6 expression in HUVEC cells induced by IL-33” value was 147 pM and the “IC50 of the inhibitory effect on the IFN-γ secretion of PBMC induced by IL-33” value came to 839 pM. Besides, the half-maximal effective concentration (EC50) in test [2] amounted to 146 pM. The same molecule returned an IC50 in test [3] of 473 pM. Moreover, in test [4], the affinity, expressed as Kd, was 1360 pM; the koff turned out to be 0.000439 s⁻¹; the association rate constant (kon) turned out to be 323000 M⁻¹ s⁻¹.

B10: 864F3-Hu3 (antibody, human IgG4 S228P, kappa, V domains shown)
VH: B1 VH with E71V, I73T, S76N, V78F
VL: B1 VL with V11L, G30A, A31T, N92Y, S93N
notes: Humanized; also called humanized antibody 864F3-Hu3
B10 registered an EC50 in test [2] of 138 pM.

B11: 871G1-ch (antibody, human IgG4 S228P, kappa, V domains shown)
VH: QVHLKESGPGLVAPSQSLSITCNVSGFSLSKYGVHWIRQTPGRGLDWLGVLRAGGTISYNSALMSRLSISEDISKSQVFLKMNDLQTDDSAIYFCARDHYYYSSFGGFASWGQGTLVTVSA
VL: DIQMTQSPASQSASLGESVTITCLASQTIGAWLAWYRQQPGKSPQLLIYAATRLADGVPSRFSGSGSGTKFSFKINNLQAEDFVIYYCQQLNSTPYTFGGGTRLEMRT
notes: Chimeric: human IgG4 (S228P) and human kappa constant regions; also called chimeric antibody 871G1-ch
On to B11, for which the EC50 turned out to be 255 pM in test [2] and 178 pM in test [5]. Also, the concentration for half-maximal inhibition (IC50) in test [6] was determined as 853 pM.

B12: 874F7-ch (antibody, human IgG4 S228P, kappa, V domains shown)
VH: QVQLKESGPGLVAPSHSLSITCNVSGFSLSKYGVHWIRQIPGRGLDWLGVLRAGGSTGYNSALMSRLSISKDSSKSQVFLKMNDLRTDDTAVYFCVRDHYYYSSYGGFVYWGQGTLVTVSA
VL: B11 VL with K70E, I85S, N92D, T94S
notes: Chimeric: human IgG4 (S228P) and human kappa constant regions; also called chimeric antibody 874F7-ch
Consider B12, for which the EC50 stood at 177 pM in test [2] and 144 pM in test [5]. The molecule also registered an IC50 in test [6] of 634 pM.
